Laboratory results reported in the supplement of paper PMC9112550, “Optimization of the antimicrobial peptide Bac7 by deep mutational scanning” (BMC Biology, 2022).

tested on: Escherichia coli TOP10; test: shrunken log2 fold change of peptide-encoding DNA abundance (4.5 h post-induction vs induction); higher = less antimicrobial activity (less host growth inhibition); conditions: time post-induction: 4.5 h; library: site-saturation at positions 5, 18, 19, 20
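Further: peptides expressed intracellularly from a pBAD plasmid library in pooled LB shake-flask culture, induced with 0.3% L-arabinose, DNA abundance read by NGS, three biological replicates, DESeq2 with apeglm shrinkage.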

| Sequence | shrunken log2 fold change |
| --- | --- |
| RRIRGRPPRLPRPRPRPFQPPRP | 0.0927 |
| RRIRGRPPRLPRPRPRPFQQPRP | -0.0372 |
| RRIRGRPPRLPRPRPRPFSDPRP | 0.165 |
| RRIRGRPPRLPRPRPRPFSKPRP | 0.164 |
| RRIRGRPPRLPRPRPRPFWDPRP | 0.322 |
| RRIRGRPPRLPRPRPRPGAMPRP | 1.25 |
| RRIRGRPPRLPRPRPRPGGWPRP | 1.58 |
| RRIRGRPPRLPRPRPRPGISPRP | 0.0483 |
| RRIRGRPPRLPRPRPRPGLGPRP | 1.67 |
| RRIRGRPPRLPRPRPRPGLYPRP | 0.341 |
| RRIRGRPPRLPRPRPRPGMKPRP | 0.484 |
| RRIRGRPPRLPRPRPRPGMYPRP | 0.191 |
| RRIRGRPPRLPRPRPRPGNLPRP | -0.639 |
| RRIRGRPPRLPRPRPRPGPSPRP | 1.05 |
| RRIRGRPPRLPRPRPRPGTMPRP | 0.0523 |
| RRIRGRPPRLPRPRPRPGVSPRP | 0.889 |
| RRIRGRPPRLPRPRPRPGWDPRP | 1.09 |
| RRIRGRPPRLPRPRPRPGWLPRP | 1.17 |
| RRIRGRPPRLPRPRPRPGWRPRP | 1.09 |
| RRIRGRPPRLPRPRPRPGYRPRP | 0.189 |
| RRIRGRPPRLPRPRPRPGYVPRP | -0.00987 |
| RRIRGRPPRLPRPRPRPHAYPRP | 2.11 |
| RRIRGRPPRLPRPRPRPHCQPRP | -0.058 |
| RRIRGRPPRLPRPRPRPHDKPRP | 0.475 |
| RRIRGRPPRLPRPRPRPHDLPRP | -0.00843 |

| Sequence | shrunken log2 fold change |
| --- | --- |
| RRIRGRPPRLPRPRPRPHDTPRP | 0.358 |
| RRIRGRPPRLPRPRPRPHEMPRP | 0.143 |
| RRIRGRPPRLPRPRPRPHFEPRP | 0.328 |
| RRIRGRPPRLPRPRPRPHFLPRP | 1.03 |
| RRIRGRPPRLPRPRPRPHGQPRP | 0.578 |
| RRIRGRPPRLPRPRPRPHHQPRP | -0.185 |
| RRIRGRPPRLPRPRPRPHHWPRP | 0.431 |
| RRIRGRPPRLPRPRPRPHKSPRP | 0.277 |
| RRIRGRPPRLPRPRPRPHKVPRP | 0.184 |
| RRIRGRPPRLPRPRPRPHLAPRP | 0.601 |
| RRIRGRPPRLPRPRPRPHPNPRP | 0.547 |
| RRIRGRPPRLPRPRPRPHPPPRP | 0.759 |
| RRIRGRPPRLPRPRPRPHPQPRP | 0.546 |
| RRIRGRPPRLPRPRPRPHPTPRP | 0.973 |
| RRIRGRPPRLPRPRPRPHRDPRP | 0.0592 |
| RRIRGRPPRLPRPRPRPHSHPRP | 0.303 |
| RRIRGRPPRLPRPRPRPHSKPRP | 0.205 |
| RRIRGRPPRLPRPRPRPHVDPRP | 0.0583 |
| RRIRGRPPRLPRPRPRPHVPPRP | 0.103 |
| RRIRGRPPRLPRPRPRPHWAPRP | 0.362 |
| RRIRGRPPRLPRPRPRPHYIPRP | -0.0882 |
| RRIRGRPPRLPRPRPRPHYRPRP | 0.231 |
| RRIRGRPPRLPRPRPRPIAKPRP | 0.245 |
| RRIRGRPPRLPRPRPRPIAPPRP | 1.29 |
| RRIRGRPPRLPRPRPRPIARPRP | 0.792 |

| Sequence | shrunken log2 fold change |
| --- | --- |
| RRIRGRPPRLPRPRPRPIAVPRP | 0.892 |
| RRIRGRPPRLPRPRPRPICFPRP | 0.535 |
| RRIRGRPPRLPRPRPRPICKPRP | 0.616 |
| RRIRGRPPRLPRPRPRPICLPRP | 0.277 |
| RRIRGRPPRLPRPRPRPIDIPRP | -0.0347 |
| RRIRGRPPRLPRPRPRPIDKPRP | 1.2 |
| RRIRGRPPRLPRPRPRPIFSPRP | 0.312 |
| RRIRGRPPRLPRPRPRPIFWPRP | 0.531 |
| RRIRGRPPRLPRPRPRPIHCPRP | -0.0922 |
| RRIRGRPPRLPRPRPRPIHDPRP | -0.126 |
| RRIRGRPPRLPRPRPRPIHFPRP | -0.252 |
| RRIRGRPPRLPRPRPRPIKHPRP | 0.171 |
| RRIRGRPPRLPRPRPRPIKKPRP | 0.00565 |
| RRIRGRPPRLPRPRPRPINNPRP | -0.0606 |
| RRIRGRPPRLPRPRPRPIQFPRP | -0.146 |
| RRIRGRPPRLPRPRPRPIQIPRP | -0.0799 |
| RRIRGRPPRLPRPRPRPISMPRP | -0.0173 |
| RRIRGRPPRLPRPRPRPITIPRP | 0.0958 |
| RRIRGRPPRLPRPRPRPIVAPRP | 0.727 |
| RRIRGRPPRLPRPRPRPIVDPRP | 0.0357 |
| RRIRGRPPRLPRPRPRPIVIPRP | -0.227 |
| RRIRGRPPRLPRPRPRPIVQPRP | 0.606 |
| RRIRGRPPRLPRPRPRPIVVPRP | 0.962 |
| RRIRGRPPRLPRPRPRPIWKPRP | 0.155 |
| RRIRGRPPRLPRPRPRPIYLPRP | 0.0531 |
